Data from the DeepSol protein solubility set.

Assay: soluble on expression in E. coli; label from the status in PepcDB or PDB records

| Sequence | soluble on expression in E. coli |
| --- | --- |
| MNVWSKLLTALRGGANEAGEALVDSQALRILDQEIRDADQELRKSKEALAEIMARQKLAAERANGSAAKIAEYESYALKALEAGNEALAQEVAQKIANLENDLAVEREQADGFAASVAQLRKAVTQAEGNIKHLKQQVDTVKATESVQKAQQAVAQRYGGSQSKLHTAVESLERIKQKQAERAAKMDAAAELANTSSPDDALDAKLREAGIVAGSTSADSVLARLKDRSKSLEHHHHHH | not soluble |
| MADSELQSAIGNNEECVNLFSDCDNVFVVAGISPLIDFQNNLNRIENYLCQKKIVGVKLYPGHEQFYLNDPRLESVFLLCEAFDVPVAVHTGWDNPHFNAPALFADIAGKHPKLKIVNCHLWYPKIDYCYEVTRDYQNIYYDISSLADDKGNKSKITEVLHRIANENPHRLIFGSDYGMCDPMAHIELVDRLPVSDETREMIFYKNAVGLYGLSRING | soluble |
| MGSDKIHHHHHHMTEPTRHQEHETETQEADLPNVCVVTHPLAAAGENATRSLLDILSAITSVALVTADLPADSEIRDRHELVELTQKGAGDSVVIAAFRFLLNQLRMCRVIAGRDEDVVLFFGATSYLLPIVVTRLLGKTVLVEPRGDVPLTLRLNWEQQLPDQVAAVLAGAVRALERAGFAVAHGVITYTPEMARQLDLHPESPSVYPTGARYVRTNEFCVQRPYADRDRVVGFLGRLDEEKGVRELAAVATQLPDDITFRFVGDGDLREWLEEDLAADIEAGHVELTGWVDHDKVPHALNDLELLILPSQPTEGLPTTILEALACGTPVYASPVSGVPDVVRDEETGFTIDSRESTALAAGIERILDRNDLAAISENGRTLIEREYSFDAACERYRGILRSVAGYSS | not soluble |
| MRVLIRSSASGSEYWDTEEKRNVFVPKGQEPDFEVTENPESMLSKEADLHVGGLPITVGNVTIDTDGIKGERLLTTASAADDEEQDELVPSDDESVVLEEMNVKELREYAKRKGIEIPSAVRAKGEILNIIKESE | not soluble |
| MSLSKIKEIRTKVYQWNGKTVPPQNNFCTNASDLLYEKSDAMGSFRFHEWLICEVETNDGHIGIGNAALAPQLVKNTIDTYLKPLVVGEDPFDYAYIWEKMYRKTLNWGRRGLGMVAISAIDIAIWDVLGKITNKPVFKLLGGRTKEKIPVYASKLYAQPLKQLQEEAEKYKNEGFKMFKSRMGWGPKDGSEGMKKNLQLLEAVREVIGEDTDLMVDCYMGWNLDYTKRMLPKMAKFNLRWLEEPVHADDIHGYAELNNMNIIPISGGEHEFNLFGFKQLLELNAVSYIQYDNNRVGGFTVAQKINALAEAYQIPVVPHAGQMHNYHLTMSNFNCPISEFFPVHEVEVGNELFYYIFEGDPAPVDGMIDLDDNTPGLGLKVTDKYKSDFKIIEEGHHHHHH | soluble |
| MAIQLSKGQRIDLTKTNPGLTKAVIGLGWDTNKYSGGHDFDLDASAFLVDAHDNCVNDLDFVFYNNLEHPSGGVIHTGDNRTGEGDGDDEQIIVDFSKIPAHIEKIGITVTIHDAEARSQNFGQVSNAFVRVVDEETQNELLRFDLGEDFSIETAVVVCELYRHGGEWKFNAIGSGFSGGLAALCRNYGLQV | not soluble |
| MAGDPMQQSDVISAAKKYMESIHQNDYTGHDIAHVYRVTALAKSIAENEGVNDTLVIELACLLHDTVDEKVVDANKQYVELKSFLSSLSLSTEDQEHILFIINNMSYRNGKNDHVTLSLEGQIVRDADRLDAIGAIGVARTFQFAGHFGEPMWTEHMSLDKINDDLVEQLPPSAIKHFFEKLLKLESLMHTDTAKMIAKERHDFMMMYLKQFFTEWNYHDLEHHHHHH | soluble |
| ADVHDKATRSKNMRAIATRDTAIEKRLASLLTGQGLAFRVQDASLPGRPDFVVDEYRCVIFTHGCFWHHHHCYLFKVPATRTEFWLEKIGKNVERDRRDISRLQELGWRVLIVWECALRGREKLTDEALTERLEEWICGEGASAQIDTQGIHLLA | soluble |
| YTVEPVQDGERSVTLRRAGGTPLVAAMYHLPAAGSPDFVGLDLAATILADTPSGRLYHALVPTKLASGVFGFTMDQLDPGLAMFGAQLQPGMDQDKALQTLTATLESLSSKPFSQEELERARSKWLTAWQQTYADPEKVGVALSEAIASGDWRLFFLQRDRVRDAKLDDVQRAAVAYLVRSNRTEGRYIPTEKPQRAPLAQR | not soluble |
| MGSDKIHHHHHHMSQYAEMSLVYDQLTQDQPYEKWFEIVKNHCKDESNILDIGCGTGSLTVQLEALGNVTGMDLSVDMLTVAAQKSANVNWLEGDMTSFDLQQQFDIITIFCDSLNYLQDETAVIETFINVYHHLTDSGVFIFDVHTVYKMMTLFNNQSYIDDKGDIFLAWDAVQGDLPLSVYHDMTFFIRHEDETYSRFDESHFQRTFDEKTYLSWLAQVGFKHVETFTDFNIDEHNEDTERLFFIAKK | not soluble |
| MSLGKMVIGFAHPDFNDMFLGFLLAGVQAYEAEQTNVEVVYVDAENDSDGQIAQVEDLIAQGVDAIMAIPVDLIATEFIVDRAQQAGVPVVLINRDSVEREDAYVGSDSLQAGTIQMEEVAAVLKGKGKIAIMNGQMGHTAQINRTLGNKQVVDQYPGMEVVIEGTGGWSREKGKELMESWIESGQTFDAVVANNDEMAIGAIMAAEEAGIVDELVFAGIDGTPDALDYMSKGKLTISVFQDAKGQGQTGLEQAIKLAKGESAEKMTNIPYETITKRNVDEGHHHHHH | soluble |
| MSLKKENSVEFKVSGRYALFSDPINRIGGEKFSYQVPTYQALKGILESVYWKPTLIWIIDEVRVMNLIKTQSQNIRPVNFSGTSKGTGTPLNTLSIYTYLTNVEYQVKAHFEWNYNRPNLEKDRNENKHYIVAKRMINRGGRRDVFLGTRECQAYVEPCKFGEGEGAYDHYGSLSFGLMFHGFDYPDETGEDKLTARLWSPVMNNGYIKFLRPDECTIKRELSSMKPKVFDENNFSGLEEFEEEGDIIELDSEGHHHHHH | soluble |
| MGSDKIHHHHHHMSKFWEKEFTCPFCGTKFKKKMVFFDSIKIKARDIDLKPVFEDVNPMFYEVVTCPNCYFSAFDKDFETITIKGEETERKLKKLLEEAKKKVELKNVENHVEAIKRYALSGMVYSVLNQRKKVAISYLKIAWLFRELGKSEEEKRYLERALKEFESHYKYDYYEESDEPMILFYLGVLNQILGNRKEAARWYELLLRKYDGKSLYAKVGRERWQELRRS | not soluble |
| DNVKYVSSVQRDKELLHAKYGKDIDKAEDVAKEYPSLESIVAKHPDIFVAGWNYGFSEEKNLTPDALKDQGIDSYILSESCRQEGSEKRGLYDPWEAVKMDISNIGKITSHADTADSVVKDIDSRLETLKKAPQADKAPTAFVFDSGTDTVFTSGKFGAPQAIIEAAGGRNGAENVEDTWTTVSWENLAASKPDVFVFVDYPGQEFEEKIAALRSNPATKNLPAVKENRFINLPYAMWTSGPLNIDAAEQMRKGFEKFGLVPSSEIKPSLELPASVPGQNYYK | not soluble |
| GMQQSEHFSFGEQTEIEDIGGGLKRQMLGFNHELMAVKIWFDKGAEGYVHAHRHSQVSYVVEGEFHVNVDGVIKVLTAGDSFFVPPHVDHGAVCPTGGILIDTFSPAREDFVEGLS | soluble |
| MGSSTGFHHADHVNYSSNLNKEEILEQLLLSYEGLSDGQVNWVCNLSNASSLIWHAYKSLAVDINWAGFYVTQASEENTLILGPFQGKVACQMIQFGKGVCGTAASTKETQIVPDVNKYPGHIACDGETKSEIVVPIISNDGKTLGVIDIDCLDYEGFDHVDKEFLEKLAKLINKSCVFK | soluble |
| GPGSMLKRSVSAAARKAGADTLAAAPAAGQQPPSNPLLPYALRRAAACEMLYGGSRVQYLVQPPFTLHKIRSENLPPPSLYAERHDLGLEMQLPRDMHVYNSINMAIQRQVGGDSSTLDGEQQQLQGGHADGFDMGAFFTEQHHPERHHNSSLPYAKHDTNNVLAMRLFPVNVGVRARTEAIRIRTDDCLQRLRDADLCAKMRLPLEHPLPLSRRSQYAAIHRVRQERCYDAPTEAAGERAAAAAEEASRTAHLRGAAAHPPPSELSIVTRPVDRLGSHSGSSAAACTADADHLSFPVHPFAAAAVSSGCHSARSGSAARLASQRWLPLQTLKPMGHNWSAATRSSGVRGPHMQLMQERLDQKGFGWKRKSRSLWQQDVATAGFRPHRYF | soluble |
| MGSSHHHHHHSSGLVPRGSMEFVKDLKTPEDYINNELKYGAHNYDPIPVVLKRAKGVFVYDVNDKRYYDFLSAYSSVNQGHCHPNILNAMINQAKNLTICSRAFFSVPLGICERYLTNLLGYDKVLMMNTGAEANETAYKLCRKWGYEVKKIPENMAKIVVCKNNFSGRTLGCISASTTKKCTSNFGPFAPQFSKVPYDDLEALEEELKDPNVCAFIVEPIQGEAGVIVPSDNYLQGVYDICKKYNVLFVADEVQTGLGRTGKLLCVHHYNVKPDVILLGKALSGGHYPISAVLANDDIMLVIKPGEHGSTYGGNPLAASICVEALNVLINEKLCENAEKLGGPFLENLKRELKDSKIVRDVRGKGLLCAIEFKNELVNVLDICLKLKENGLITRDVHDKTIRLTPPLCITKEQLDECTEIIVKTVKFFDERF | soluble |
| MKVAFVIRKDCKRCATIAKSIIELIPPDWEKIYDTEAAKFLGGVGKDITEISADIIIAIGGDGTVLRILQNAKGPVLGINMGGLGFLTEIEIDEVGSSTYKLIRGEYKINEAMKLKVYINGRRLEDCTNEAVVHTDRIARIRQFKIYVDGHFLTTIKSDGVIVATPTGSSSYSSSAGGPLLLPTVRGMVISYLAPYSSRIKPVVVPSESTVEIKIAGNDQDSLLILDGQKEYKIKSGDTVSISMSEEKARFVSFRESIYDRLRDKVIKHVVN | soluble |
| MFLKKETFTRGDASVALFELSGLQRIEYLEFIQKRTAKYDTDMDGTTEADKRVAYMQMALEINAWLVSRSLLNGDSSQDADTLYQSVQAKWSYEALDAGAESVLMLSGLSADKKDNASDSGNESEDMTPEKS | not soluble |
| MGSDKIHHHHHHMNQHIKGKHLSFEERVIIQLRLKDGYSLRAIARELNCSPSTISYEVKRGTVELYGKVKRYKATQGHDAYQAHRKNCGRKSDFLRKTQFMRYVHKHFFKDGWSLDVCSNRATAVGAFSSRDVVCTKTLYNYVDQGLLDIHNYDLPEKLKRNTKLHRIRKNKKKLGRSIEERPKEINKRNEFGHWECDLVLGHKCTDDEVLLALSERMSREFLILRIPDKTSVSVMQAFKELQRQYSEHWNDIFKTITTDNGSEFADLSNLEKASNTLVYYAHPYTSCDKGTVERHNGLIRRFIPKEEAIANYSLQDIINIETWCNSLPRKILAYHTPDEIFERELDLIYQAA | not soluble |
| MGSDKIHHHHHHMTQVPPSASPADLLAVLERIATALERQGAPAVPANSLDGADAFVWHAAESWLEPVCRVNRVDIALLQGIERQRQTLYDNTLRFAHGLPANNALLWGARGTGKSSLVKAVHASVNQALTAKGAAPVALVEIHREDIPTLPRLLRILAASGRPCLLFCDDLSFDGNDSSYKSLKAVLEGGIEGRPDTVIFYATSNRRHLLAREMVENEQSTALHAGEAVEEKVSLSDRFGLWLGFHNVDQPTYFDIVDGYARAYGLDIETEDLHREAREWSMARGSRSGRTAWQFIQDLAGRLGKTLE | not soluble |
| MHHHHHHGSMSMPNHQNMLDNQTILITGGTGSFGKCFVRKVLDTTNAKKIIVYSRDELKQSEMAMEFNDPRMRFFIGDVRDLERLNYALEGVDICIHAAALKHVPIAEYNPLECIKTNIMGASNVINACLKNAISQVIALSTDKAANPINLYGATKLCSDKLFVSANNFKGSSQTQFSVVRYGNVVGSRGSVVPFFKKLVQNKASEIPITDIRMTRFWITLDEGVSFVLKSLKRMHGGEIFVPKIPSMKMTDLAKALAPNTPTKIIGIRPGEKLHEVMIPKDESHLALEFEDFFIIQPTISFQTPKDYTLTKLHEKGQKVAPDFEYSSHNNNQWLEPDDLLKLL | soluble |
